Data taken from patent publication US20180155451A1 (published 2018).

T1: FcγRIIa R (extracellular domain with a His tag at the C terminus) (human, UniProt P12318 34-217)
T1 construct: extracellular domain; expressed in FreeStyle293 cells; also called FcgRIIa R; FcγRIIa type R; not shown: His tag at the C terminus
T1 sequence (looked up): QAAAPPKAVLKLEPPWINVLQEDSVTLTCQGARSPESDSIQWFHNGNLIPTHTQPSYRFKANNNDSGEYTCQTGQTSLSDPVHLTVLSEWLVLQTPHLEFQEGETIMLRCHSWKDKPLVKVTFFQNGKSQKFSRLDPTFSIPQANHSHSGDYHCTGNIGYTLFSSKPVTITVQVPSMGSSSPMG

B1: GpH7-B3 variant P238_03V/GpL16-k0 (antibody, human IgG1, kappa)
heavy: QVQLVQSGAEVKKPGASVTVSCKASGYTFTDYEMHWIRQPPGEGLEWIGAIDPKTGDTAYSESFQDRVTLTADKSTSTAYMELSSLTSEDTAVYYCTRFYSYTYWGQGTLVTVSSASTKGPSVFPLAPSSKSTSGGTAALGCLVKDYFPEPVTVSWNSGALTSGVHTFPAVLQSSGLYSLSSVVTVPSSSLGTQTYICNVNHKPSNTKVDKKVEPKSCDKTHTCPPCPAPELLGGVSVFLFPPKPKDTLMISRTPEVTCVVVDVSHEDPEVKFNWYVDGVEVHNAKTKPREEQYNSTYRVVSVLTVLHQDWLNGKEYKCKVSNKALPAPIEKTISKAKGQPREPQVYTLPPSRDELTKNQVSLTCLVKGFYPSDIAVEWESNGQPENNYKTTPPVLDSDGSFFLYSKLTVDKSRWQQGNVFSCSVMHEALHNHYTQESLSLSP
light: DIVMTQSPLSLPVTPGEPASISCQASESLVHSNRNTYLHWYLQKPGQSPQLLIYKVSNRFSGVPDRFSGSGSGTDFTLKISRVEAEDVGVYYCSQNTHVPPTFGQGTKVEIERTVAAPSVFIFPPSDEQLKSGTASVVCLLNNFYPREAKVQWKVDNALQSGNSQESVTEQDSKDSTYSLSSTLTLSKADYEKHKVYACEVTHQGLSSPVTKSFNRGEC
notes: homodimerized; mutation in both H chains; also called Ho Ab
B2: GpH7-A5/GpH7-B3 variant S337_02A/GpL16-k0 (antibody, human IgG1, kappa)
heavy 1: not shown
heavy 2: not shown
light: B1 light
notes: heterodimerized; mutation in one H chain; also called He Ab
B3: GpH7-B3 variant S337_18N/GpL16-k0 (antibody, human IgG1, kappa)
heavy: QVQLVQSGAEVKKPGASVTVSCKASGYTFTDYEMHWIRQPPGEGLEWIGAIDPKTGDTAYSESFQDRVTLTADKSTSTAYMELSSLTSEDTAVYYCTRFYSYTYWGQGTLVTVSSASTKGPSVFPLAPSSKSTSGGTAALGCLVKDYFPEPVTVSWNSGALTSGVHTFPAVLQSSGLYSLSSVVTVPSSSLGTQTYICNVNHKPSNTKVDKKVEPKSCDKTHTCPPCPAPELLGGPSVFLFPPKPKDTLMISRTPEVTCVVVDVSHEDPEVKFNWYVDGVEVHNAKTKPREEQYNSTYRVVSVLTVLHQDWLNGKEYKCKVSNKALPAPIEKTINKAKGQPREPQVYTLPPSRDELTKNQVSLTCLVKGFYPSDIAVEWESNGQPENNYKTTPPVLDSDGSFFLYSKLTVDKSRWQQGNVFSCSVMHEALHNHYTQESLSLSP
light: B1 light
notes: as for B1
B4: GpH7-B3 variant S239_08L/GpL16-k0 (antibody, human IgG1, kappa)
heavy: not shown
light: B1 light
notes: as for B1
B5: GpH7-A5/GpH7-B3 variant K334_08L/GpL16-k0 (antibody, human IgG1, kappa)
heavy 1: not shown
heavy 2: not shown
light: B1 light
notes: as for B2
B6: GpH7-A5/GpH7-B3 variant G237_20W/GpL16-k0 (antibody, human IgG1, kappa)
heavy 1: not shown
heavy 2: not shown
light: B1 light
notes: as for B2
B7: GpH7-A5/GpH7-B3 variant A330_12R/GpL16-k0 (antibody, human IgG1, kappa)
heavy 1: not shown
heavy 2: not shown
light: B1 light
notes: as for B2
B8: GpH7-B3 variant S337_09D/GpL16-k0 (antibody, human IgG1, kappa)
heavy: not shown
light: B1 light
notes: as for B1
B9: GpH7-A5/GpH7-B3 variant H268_01G/GpL16-k0 (antibody, human IgG1, kappa)
heavy 1: not shown
heavy 2: not shown
light: B1 light
notes: as for B2
B10: GpH7-A5/GpH7-B3 variant L328_13S/GpL16-k0 (antibody, human IgG1, kappa)
heavy 1: not shown
heavy 2: not shown
light: B1 light
notes: as for B2
B11: GpH7-A5/GpH7-B3 variant I336_08L/GpL16-k0 (antibody, human IgG1, kappa)
heavy 1: not shown
heavy 2: not shown
light: B1 light
notes: as for B2
B12: GpH7-A5/GpH7-B3 variant A327_10E/GpL16-k0 (antibody, human IgG1, kappa)
heavy 1: not shown
heavy 2: not shown
light: B1 light
notes: as for B2
B13: GpH7-B3 variant S337_16H/GpL16-k0 (antibody, human IgG1, kappa)
heavy: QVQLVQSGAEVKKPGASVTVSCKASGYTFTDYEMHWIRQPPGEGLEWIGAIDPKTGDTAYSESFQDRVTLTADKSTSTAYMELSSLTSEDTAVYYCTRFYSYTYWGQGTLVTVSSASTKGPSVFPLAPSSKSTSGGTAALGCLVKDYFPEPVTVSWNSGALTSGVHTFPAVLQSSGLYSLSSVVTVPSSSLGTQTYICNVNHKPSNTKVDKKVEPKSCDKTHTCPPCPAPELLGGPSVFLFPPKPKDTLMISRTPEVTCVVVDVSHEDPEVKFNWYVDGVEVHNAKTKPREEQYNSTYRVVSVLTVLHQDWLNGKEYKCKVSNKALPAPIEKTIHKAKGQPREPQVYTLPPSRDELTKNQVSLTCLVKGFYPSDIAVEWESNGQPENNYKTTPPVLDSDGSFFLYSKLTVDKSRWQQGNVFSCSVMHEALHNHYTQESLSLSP
light: B1 light
notes: as for B1
B14: GpH7-B3 variant T335_02A/GpL16-k0 (antibody, human IgG1, kappa)
heavy: not shown
light: B1 light
notes: as for B1
B15: GpH7-B3 variant P331_02A/GpL16-k0 (antibody, human IgG1, kappa)
heavy: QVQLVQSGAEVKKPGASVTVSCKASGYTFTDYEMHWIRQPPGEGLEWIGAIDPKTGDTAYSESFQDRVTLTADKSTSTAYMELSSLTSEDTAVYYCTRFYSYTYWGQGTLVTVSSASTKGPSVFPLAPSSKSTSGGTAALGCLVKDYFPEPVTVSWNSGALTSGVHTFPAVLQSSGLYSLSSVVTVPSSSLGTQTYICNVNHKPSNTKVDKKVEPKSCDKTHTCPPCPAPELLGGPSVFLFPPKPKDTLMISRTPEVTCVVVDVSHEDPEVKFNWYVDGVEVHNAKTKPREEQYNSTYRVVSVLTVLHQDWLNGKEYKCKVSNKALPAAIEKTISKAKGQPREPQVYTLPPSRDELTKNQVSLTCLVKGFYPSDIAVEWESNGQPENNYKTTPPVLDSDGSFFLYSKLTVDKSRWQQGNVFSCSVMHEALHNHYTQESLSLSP
light: B1 light
notes: as for B1
B16: GpH7-B3 variant P331_20W/GpL16-k0 (antibody, human IgG1, kappa)
heavy: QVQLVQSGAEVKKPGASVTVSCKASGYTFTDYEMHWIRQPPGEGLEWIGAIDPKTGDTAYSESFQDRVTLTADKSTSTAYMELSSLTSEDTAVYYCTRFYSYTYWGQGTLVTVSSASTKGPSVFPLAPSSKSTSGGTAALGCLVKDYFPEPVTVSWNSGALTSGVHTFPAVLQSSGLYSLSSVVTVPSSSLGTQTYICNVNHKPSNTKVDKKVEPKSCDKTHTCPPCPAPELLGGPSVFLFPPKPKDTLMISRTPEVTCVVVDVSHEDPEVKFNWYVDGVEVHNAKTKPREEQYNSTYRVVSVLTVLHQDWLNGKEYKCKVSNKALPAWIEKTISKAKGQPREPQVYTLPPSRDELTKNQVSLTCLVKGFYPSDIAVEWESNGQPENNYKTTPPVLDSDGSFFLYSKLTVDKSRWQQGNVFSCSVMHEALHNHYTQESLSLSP
light: B1 light
notes: as for B1
B17: GpH7-B3 variant S337_15Y/GpL16-k0 (antibody, human IgG1, kappa)
heavy: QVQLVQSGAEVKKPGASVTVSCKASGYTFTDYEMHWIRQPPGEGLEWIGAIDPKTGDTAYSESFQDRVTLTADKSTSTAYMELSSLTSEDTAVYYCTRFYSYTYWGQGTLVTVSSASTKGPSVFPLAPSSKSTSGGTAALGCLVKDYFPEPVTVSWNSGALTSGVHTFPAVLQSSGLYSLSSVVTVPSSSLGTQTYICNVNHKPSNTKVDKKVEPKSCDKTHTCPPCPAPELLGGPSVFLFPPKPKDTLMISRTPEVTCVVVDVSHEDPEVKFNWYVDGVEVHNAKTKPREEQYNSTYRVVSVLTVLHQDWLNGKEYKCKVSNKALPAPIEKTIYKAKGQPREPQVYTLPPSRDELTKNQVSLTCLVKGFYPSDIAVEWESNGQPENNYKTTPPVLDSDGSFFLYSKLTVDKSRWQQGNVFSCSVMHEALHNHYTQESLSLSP
light: B1 light
notes: as for B1
B18: GpH7-A5/GpH7-B3 variant P238_03V/GpL16-k0 (antibody, human IgG1, kappa)
heavy 1: not shown
heavy 2: not shown
light: B1 light
notes: as for B2
B19: GpH7-A5/GpH7-B3 variant A330_01G/GpL16-k0 (antibody, human IgG1, kappa)
heavy 1: not shown
heavy 2: not shown
light: B1 light
notes: as for B2
B20: GpH7-B3 variant S337_20W/GpL16-k0 (antibody, human IgG1, kappa)
heavy: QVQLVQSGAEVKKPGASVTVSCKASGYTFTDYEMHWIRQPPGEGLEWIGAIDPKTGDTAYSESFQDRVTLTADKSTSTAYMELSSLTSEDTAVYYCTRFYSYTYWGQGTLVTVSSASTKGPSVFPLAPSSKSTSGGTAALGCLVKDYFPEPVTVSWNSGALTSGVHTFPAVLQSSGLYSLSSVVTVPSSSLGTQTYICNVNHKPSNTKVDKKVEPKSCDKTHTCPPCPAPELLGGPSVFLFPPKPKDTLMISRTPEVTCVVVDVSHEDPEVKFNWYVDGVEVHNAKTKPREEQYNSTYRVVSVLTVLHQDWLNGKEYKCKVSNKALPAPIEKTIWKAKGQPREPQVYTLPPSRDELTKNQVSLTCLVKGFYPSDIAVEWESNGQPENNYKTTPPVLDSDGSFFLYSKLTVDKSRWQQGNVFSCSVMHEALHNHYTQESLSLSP
light: B1 light
notes: as for B1
B21: GpH7-A5/GpH7-B3 variant L235_20W/GpL16-k0 (antibody, human IgG1, kappa)
heavy 1: not shown
heavy 2: not shown
light: B1 light
notes: as for B2
B22: GpH7-A5/GpH7-B3 variant K334_02A/GpL16-k0 (antibody, human IgG1, kappa)
heavy 1: not shown
heavy 2: not shown
light: B1 light
notes: as for B2
B23: GpH7-B3 variant T335_10E/GpL16-k0 (antibody, human IgG1, kappa)
heavy: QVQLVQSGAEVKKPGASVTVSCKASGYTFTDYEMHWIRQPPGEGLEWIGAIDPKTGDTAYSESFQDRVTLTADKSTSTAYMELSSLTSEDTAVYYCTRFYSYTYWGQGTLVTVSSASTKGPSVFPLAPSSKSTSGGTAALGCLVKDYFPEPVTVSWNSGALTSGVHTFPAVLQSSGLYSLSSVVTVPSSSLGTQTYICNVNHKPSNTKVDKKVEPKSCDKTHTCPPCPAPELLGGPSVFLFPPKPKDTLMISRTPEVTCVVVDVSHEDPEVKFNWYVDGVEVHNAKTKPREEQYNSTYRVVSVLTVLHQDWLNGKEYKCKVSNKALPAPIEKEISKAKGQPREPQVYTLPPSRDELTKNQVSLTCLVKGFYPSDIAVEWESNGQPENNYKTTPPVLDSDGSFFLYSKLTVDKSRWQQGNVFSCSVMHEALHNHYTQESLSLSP
light: B1 light
notes: as for B1
B24: GpH7-A5/GpH7-B3 variant K334_19Q/GpL16-k0 (antibody, human IgG1, kappa)
heavy 1: not shown
heavy 2: not shown
light: B1 light
notes: as for B2
B25: GpH7-B3 variant S267_03V/GpL16-k0 (antibody, human IgG1, kappa)
heavy: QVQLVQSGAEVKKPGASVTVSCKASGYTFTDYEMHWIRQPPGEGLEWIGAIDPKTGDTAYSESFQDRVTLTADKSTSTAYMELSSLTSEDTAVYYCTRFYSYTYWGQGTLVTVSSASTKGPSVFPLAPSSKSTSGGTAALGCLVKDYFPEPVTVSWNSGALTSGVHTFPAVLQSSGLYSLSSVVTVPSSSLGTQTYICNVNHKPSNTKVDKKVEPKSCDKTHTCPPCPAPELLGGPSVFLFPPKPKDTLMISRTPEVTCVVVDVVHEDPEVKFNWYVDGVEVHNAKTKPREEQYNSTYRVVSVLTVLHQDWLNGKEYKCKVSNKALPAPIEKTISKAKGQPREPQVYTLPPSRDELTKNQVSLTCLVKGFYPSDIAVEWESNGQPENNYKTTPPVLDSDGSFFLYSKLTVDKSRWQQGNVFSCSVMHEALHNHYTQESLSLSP
light: B1 light
notes: as for B1
B26: GpH7-B3 variant P271_08L/GpL16-k0 (antibody, human IgG1, kappa)
heavy: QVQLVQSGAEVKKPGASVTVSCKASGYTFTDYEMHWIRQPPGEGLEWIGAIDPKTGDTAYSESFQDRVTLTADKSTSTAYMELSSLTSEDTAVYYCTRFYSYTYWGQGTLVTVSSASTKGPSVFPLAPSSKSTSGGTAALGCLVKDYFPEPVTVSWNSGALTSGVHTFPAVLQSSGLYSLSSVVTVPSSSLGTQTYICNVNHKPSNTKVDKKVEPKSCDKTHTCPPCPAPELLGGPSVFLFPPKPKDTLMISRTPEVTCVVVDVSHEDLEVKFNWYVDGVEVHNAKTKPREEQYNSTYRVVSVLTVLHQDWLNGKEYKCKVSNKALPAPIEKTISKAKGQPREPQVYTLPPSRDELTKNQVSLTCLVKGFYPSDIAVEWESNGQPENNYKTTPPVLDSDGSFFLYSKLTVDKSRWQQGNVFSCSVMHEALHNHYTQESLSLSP
light: B1 light
notes: as for B1
B27: GpH7-A5/GpH7-B3 variant I332_06M/GpL16-k0 (antibody, human IgG1, kappa)
heavy 1: not shown
heavy 2: not shown
light: B1 light
notes: as for B2
B28: GpH7-B3 variant S337_07I/GpL16-k0 (antibody, human IgG1, kappa)
heavy: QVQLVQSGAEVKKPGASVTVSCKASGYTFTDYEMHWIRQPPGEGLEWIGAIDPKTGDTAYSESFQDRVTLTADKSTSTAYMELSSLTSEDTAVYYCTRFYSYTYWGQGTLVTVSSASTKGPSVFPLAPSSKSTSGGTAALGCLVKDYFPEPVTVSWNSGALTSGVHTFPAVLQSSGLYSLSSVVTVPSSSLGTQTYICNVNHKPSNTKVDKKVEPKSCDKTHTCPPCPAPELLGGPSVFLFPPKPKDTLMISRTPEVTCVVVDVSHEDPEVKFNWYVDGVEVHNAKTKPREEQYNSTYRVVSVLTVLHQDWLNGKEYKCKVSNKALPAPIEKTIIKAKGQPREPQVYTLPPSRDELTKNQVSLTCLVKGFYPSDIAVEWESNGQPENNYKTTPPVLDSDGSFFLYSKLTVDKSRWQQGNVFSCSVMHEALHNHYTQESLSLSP
light: B1 light
notes: as for B1
B29: GpH7-A5/GpH7-B3 variant K326_04F/GpL16-k0 (antibody, human IgG1, kappa)
heavy 1: not shown
heavy 2: not shown
light: B1 light
notes: as for B2

Target: T1, FcγRIIa R (extracellular domain with a …)
Test: SPR Biacore, relative binding

Row | Ho/Con_2aR | He/Con_2aR | Binder
1 | 116 % of GpH7-B3/GpL16-k0 (=100) |  | B1
2 |  | 105 % of GpH7-A5/GpH7-B3/GpL16-k0 (=100) | B2
3 | 103 % of GpH7-B3/GpL16-k0 (=100) |  | B3
4 | 106 % of GpH7-B3/GpL16-k0 (=100) |  | B4
5 |  | 106 % of GpH7-A5/GpH7-B3/GpL16-k0 (=100) | B5
6 |  | 138 % of GpH7-A5/GpH7-B3/GpL16-k0 (=100) | B6
7 |  | 104 % of GpH7-A5/GpH7-B3/GpL16-k0 (=100) | B7
8 | 114 % of GpH7-B3/GpL16-k0 (=100) |  | B8
9 |  | 124 % of GpH7-A5/GpH7-B3/GpL16-k0 (=100) | B9
10 |  | 117 % of GpH7-A5/GpH7-B3/GpL16-k0 (=100) | B10
11 |  | 110 % of GpH7-A5/GpH7-B3/GpL16-k0 (=100) | B11
12 |  | 110 % of GpH7-A5/GpH7-B3/GpL16-k0 (=100) | B12
13 | 107 % of GpH7-B3/GpL16-k0 (=100) |  | B13
14 | 102 % of GpH7-B3/GpL16-k0 (=100) |  | B14
15 | 102 % of GpH7-B3/GpL16-k0 (=100) |  | B15
16 | 102 % of GpH7-B3/GpL16-k0 (=100) |  | B16
17 | 100 % of GpH7-B3/GpL16-k0 (=100) |  | B17
18 |  | 120 % of GpH7-A5/GpH7-B3/GpL16-k0 (=100) | B18
19 |  | 109 % of GpH7-A5/GpH7-B3/GpL16-k0 (=100) | B19
20 | 105 % of GpH7-B3/GpL16-k0 (=100) |  | B20
21 |  | 131 % of GpH7-A5/GpH7-B3/GpL16-k0 (=100) | B21
22 |  | 105 % of GpH7-A5/GpH7-B3/GpL16-k0 (=100) | B22
23 | 109 % of GpH7-B3/GpL16-k0 (=100) |  | B23
24 |  | 109 % of GpH7-A5/GpH7-B3/GpL16-k0 (=100) | B24
25 | 115 % of GpH7-B3/GpL16-k0 (=100) |  | B25
26 | 102 % of GpH7-B3/GpL16-k0 (=100) |  | B26
27 |  | 109 % of GpH7-A5/GpH7-B3/GpL16-k0 (=100) | B27
28 | 103 % of GpH7-B3/GpL16-k0 (=100) |  | B28
29 |  | 135 % of GpH7-A5/GpH7-B3/GpL16-k0 (=100) | B29
